Assay results as given in patent publication US20120316071A1 (published 2012).

Tests used:
[1] = target: T1, rHuman Erythropoietin R/Fc Chimera, CF (R&D Systems Cat#963-ER) (human, UniProt P19235 25-250); experiment: ECL multispot (MSD) assay, spotted antigen; Fab 0.20 (head prints uM)
T1 construct: Bought recombinant protein; also called EPO R; EPO R/Fc; Fc part of the bought chimera not given
T1 sequence (looked up): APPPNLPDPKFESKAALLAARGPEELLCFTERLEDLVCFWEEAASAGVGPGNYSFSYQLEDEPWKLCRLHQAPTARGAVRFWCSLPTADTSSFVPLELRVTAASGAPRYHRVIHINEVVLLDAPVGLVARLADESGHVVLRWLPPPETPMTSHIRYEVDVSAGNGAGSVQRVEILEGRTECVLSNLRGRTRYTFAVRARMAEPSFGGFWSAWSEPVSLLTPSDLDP

[2] = target: T2, rHuman EGF R/Fc Chimera, CF (R&D Systems Cat#344-ER) (human, UniProt P00533 25-645); experiment: as above
T2 construct: Bought recombinant protein; Fc part of the bought chimera not given

[3] = target: T3, rHuman CD44/Fc Chimera, CF (R&D Systems Cat#3660-CD) (human, UniProt P16070 21-220); experiment: as above
T3 construct: Bought recombinant protein; Fc part of the bought chimera not given

[4] = target: T1, rHuman Erythropoietin R/Fc Chimera, CF …; experiment: ECL multispot (MSD) assay, spotted antigen; Fab 20.00 (head prints uM)
[5] = target: T2, rHuman EGF R/Fc Chimera, CF (R&D …); experiment: as above
[6] = target: T4, rHuman HGF R/c-MET/Fc Chimera, CF (R&D Systems Cat#358-MT/CF) (human, UniProt P08581 25-932); experiment: as above
T4 construct: Bought recombinant protein; also called HGF R/Fc; Fc part of the bought chimera not given

[7] = target: T5, rHuman P-Cadherin/Fc Chimera, CF (R&D Systems Cat#861-PC) (human, UniProt P22223 108-654); experiment: as above
T5 construct: Bought recombinant protein; Fc part of the bought chimera not given

[8] = target: T6, rHuman Notch-1/Fc Chimera, CF (R&D Systems Cat#3647-TK) (human, UniProt P46531 19-526); experiment: MSD Multispot ECL, antigen spotted on plate, Fab at 30 nM; blank spot 213
T6 construct: Bought Fc chimera; Fc part of the bought chimera not given

[9] = target: T7, rHuman CD44/Fc Chimera, CF (R&D Systems Cat#3660-CD) (human, UniProt P16070 21-220); experiment: as above
T7 construct: Bought Fc chimera; Fc part of the bought chimera not given

[10] = target: T8, Recombinant Human DLL4 (R&D Systems Cat#1506-D4/CF) (human, UniProt Q9NR61 27-524); experiment: as above
T8 construct: Bought recombinant protein; also called rHuman DLL4; delta-like protein 4

[11] = target: T9, rHuman P-Cadherin/Fc Chimera, CF (R&D Systems Cat#861-PC) (human, UniProt P22223 108-654); experiment: as above
T9 construct: Bought Fc chimera; Fc part of the bought chimera not given

[12] = target: T10, rHuman Erythropoietin R/Fc Chimera, CF (R&D Systems Cat#963-ER) (human, UniProt P19235 25-250); experiment: as above
T10 construct: Bought Fc chimera; also called EPO R/Fc; Epo R; Fc part of the bought chimera not given
T10 sequence (looked up): T1 sequence (looked up)

[13] = target: T11, rHuman P-Cadherin/Fc Chimera, CF (R&D Systems Cat#861-PC) (human, UniProt P22223 108-654); experiment: Multispot ECL (MSD) titration; antigen spotted on plate; Fab 58.1 nM; blank spot 225
T11 construct: Bought Fc chimera; Fc part of the bought chimera not given

[14] = target: T12, rHuman ErbB2/Fc Chimera, CF (R&D Systems Cat#1129-ER) (human, UniProt P04626 23-652); experiment: as above
T12 construct: Bought Fc chimera; also called human epidermal growth factor 2 receptor; Fc part of the bought chimera not given

[15] = target: T13, rHuman Erythropoietin R/Fc Chimera, CF (R&D Systems Cat#963-ER) (human, UniProt P19235 25-250); experiment: as above
T13 construct: Bought Fc chimera; also called EPO R/Fc; EPO R; Fc part of the bought chimera not given
T13 sequence (looked up): T1 sequence (looked up)

[16] = target: T14, rHuman CD44/Fc Chimera, CF (R&D Systems Cat#3660-CD) (human, UniProt P16070 21-220); experiment: as above
T14 construct: Bought Fc chimera; Fc part of the bought chimera not given

[17] = target: T15, rHuman Notch-1/Fc Chimera, CF (R&D Systems Cat#3647-TK) (human, UniProt P46531 19-526); experiment: as above
T15 construct: Bought Fc chimera; Fc part of the bought chimera not given

[18] = target: T16, Recombinant Human DLL4 (R&D Systems Cat#1506-D4/CF) (human, UniProt Q9NR61 27-524); experiment: as above
T16 construct: Bought recombinant protein; also called delta-like protein 4; rHuman DLL4

[19] = target: T17, rHuman IGF-1 sR (IGF-1 sR), CF (R&D Systems Cat#391-GR) (human, UniProt P08069 31-932); experiment: as above
T17 construct: Bought soluble receptor; also called insulin-like growth factor-1 soluble receptor

T4 sequence (P08581 25-932, change not shown): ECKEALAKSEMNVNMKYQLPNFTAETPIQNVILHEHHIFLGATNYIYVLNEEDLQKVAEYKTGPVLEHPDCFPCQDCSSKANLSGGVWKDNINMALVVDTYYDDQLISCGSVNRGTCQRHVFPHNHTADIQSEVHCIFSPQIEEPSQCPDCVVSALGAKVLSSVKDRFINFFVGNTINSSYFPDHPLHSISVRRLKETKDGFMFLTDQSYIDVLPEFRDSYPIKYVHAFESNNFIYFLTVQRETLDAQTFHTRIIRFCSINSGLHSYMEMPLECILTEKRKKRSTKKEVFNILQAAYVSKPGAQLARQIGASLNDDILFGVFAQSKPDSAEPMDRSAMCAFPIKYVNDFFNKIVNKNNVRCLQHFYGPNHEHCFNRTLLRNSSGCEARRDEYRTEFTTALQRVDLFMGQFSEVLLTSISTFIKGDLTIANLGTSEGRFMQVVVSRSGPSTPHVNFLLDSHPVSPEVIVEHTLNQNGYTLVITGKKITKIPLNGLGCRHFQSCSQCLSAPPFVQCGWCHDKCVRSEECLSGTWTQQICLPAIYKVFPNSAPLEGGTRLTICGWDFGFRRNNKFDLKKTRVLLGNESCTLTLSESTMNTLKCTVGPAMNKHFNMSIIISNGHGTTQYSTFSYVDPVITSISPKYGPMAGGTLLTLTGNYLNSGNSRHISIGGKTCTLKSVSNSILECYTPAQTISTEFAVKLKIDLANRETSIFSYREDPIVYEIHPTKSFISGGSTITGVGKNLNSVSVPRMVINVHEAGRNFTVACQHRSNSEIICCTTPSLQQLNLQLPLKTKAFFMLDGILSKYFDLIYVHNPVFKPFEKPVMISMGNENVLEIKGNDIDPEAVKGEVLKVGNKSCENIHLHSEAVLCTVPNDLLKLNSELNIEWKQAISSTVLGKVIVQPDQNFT

B1: Fab VH5-51_IGHD5-18*01>3_IGHJ4*01 G100K/G104T & V3-4_IGLJ1*01 (Fab, V domains shown)
VH: EVQLVQSGAEVKKPGESLKISCKGSGYSFTSYWIGWVRQMPGKGLEWMGIIYPGDSDTRYSPSFQGQVTISADKSISTAYLQWSSLKASDTAMYYCARRKYSYTYDYFDYWGQGTLVTVSS
VL: QTVVTQEPSFSVSPGGTVTLTCGLSSGSVSTSYYPSWYQQTPGQAPRTLIYSTNTRSSGVPDRFSGSILGNKAALTITGAQADDESDYYCVLYMGSGISYVFGTGTKVTVL
notes: Tested as a Fab; The constant parts are the same as for the parent Fab (CH1 with His6/Flag tags, lambda CL); also called KT double mutant; H:KT
Work on B1 yielded an ECL signal/noise ratio [1] of 1.7, an ECL signal/noise ratio [2] of 1.5 and an ECL signal/noise ratio [3] of 1.3. The ECL signal/noise ratio [4] was 1.1, the ECL signal/noise ratio [5] was 1.1 and the ECL signal/noise ratio [6] was 0.9. For the same binder, the ECL signal/noise ratio [7] was 1.1.

B2: Fab VH6-1_IGHD3-3*01_IGHJ4*01 & V4-3_IGLJ4*01 (Fab, V domains shown)
VH: QVQLQQSGPGLVKPSQTLSLTCAISGDSVSSNSAAWNWIRQSPSRGLEWLGRTYYRSKWYNDYAVSVKSRITINPDTSKNQFSLQLNSVTPEDTAVYYCAREYYDFWSGYYTDYFDYWGQGTLVTVSS
VL: QPVLTQPTSLSASPGASARLTCTLRSGINLGSYRIFWYQQKPESPPRYLLSYYSDSSKHQGSGVPSRFSGSKDASSNAGILVISGLQSEDEADYYCMIWHSSASFVFGGGTQLIIL
notes: Tested as a purified germline Fab made in E. coli; The VH was cloned into plasmid A (CH1 constant region, His6 and Flag tags) and the lambda VL into plasmid E (lambda CL)
Binder B2 has an ECL signal [8] of 425, an ECL signal [9] of 484 and an ECL signal [10] of 736. For the same binder, the ECL signal [11] was 440 and the ECL signal [12] was 325.

B3: Fab VH1-46_IGHD6-13*01_IGHJ4*01 & O1_IGKJ1*01 (Fab, V domains shown)
VH: QVQLVQSGAEVKKPGASVKVSCKASGYTFTSYYMHWVRQAPGQGLEWMGIINPSGGSTSYAQKFQGRVTMTRDTSTSTVYMELSSLRSEDTAVYYCAREGYSSSWYDYFDYWGQGTLVTVSS
VL: DIVMTQTPLSLPVTPGEPASISCRSSQSLLDSDDGNTYLDWYLQKPGQSPQLLIYTLSYRASGVPDRFSGSGSGTDFTLKISRVEAEDVGVYYCMQRIEFPSWTFGQGTKVEIKR
notes: Germline library Fab expressed in E. coli; VH was cloned into Plasmid A (CH1 constant region, His6 and Flag tags); The kappa VL was cloned into Plasmid C (kappa CL)
For B3, the ECL signal [13] was 478, the ECL signal [14] was 322 and the ECL signal [15] was 829. The ECL signal [16] was 375, the ECL signal [17] was 388 and the ECL signal [18] was 1880. The ECL signal [19] was 343.
